# From the supplement of paper PMC9170038
# Tested on: MS2 coat protein
# Test: apparent KD of MS2 coat protein; higher = weaker reporter binding
# Details: Eterna round: R107; input ligand: theophylline 20 uM
# Method: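 RNA-MaP round R107: designed RNA switches with theophylline, tryptophan, arginine or FMN aptamers are transcribed on-chip within common flanks. They are titrated with SNAP-549-labelled MS2 coat protein in RNA-MaP buffer (100 mM Tris pH 7.5, 80 mM KCl, 4 mM MgCl2), without ligand or with the indicated ligand. Median apparent KD per design.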
row,Sequence,apparent KD of MS2 coat protein
1,UUGCAUAUCUUGGAUACCAGCACAUGAGGAUCACCCAUGUCCGCGGGAUAGCUCCAGAUGUGCCCUUGGCAGCCACAUGCACUUG [Quinzama],18.4 nM
2,ACUAGUUGUGCAGAUACCAGACACGAGGAUCACCCGUGUUUGGGAUGUUCGCAUCUUCCUGUCCCUUGGCAGCUGUACAUCUAGA [Omei Theo B Exc v8],23.5 nM
3,UAAUAAAUAAGUGAUACCAGCGAGAAAACAUGAGGAUCACCCAUGUUCGCCCAUGUUAAGCGCCCUUGGCAGCACAAAUAUAAAA [AstrosExyTheB#1],42.7 nM
4,CGCAAGCAACAUGAGGAUCACCCAUGUGAAGGAGCGCCGAAUAAGGCAGGUAGGUCGCACAUGAAUAAAUCAUGUAAAAGCUUGC [MAT - Exclusion Arginine A - Mod of Eli - D22],52.9 nM
5,AGCACGGUGAUGGUAGCCGGACGCUAAGUACGAGGACCGGUACGGCCGCCACUCGGAGUCCUACGACAUGAGGAUCACCCAUGUA [Same State Trp A GF12],50 nM
6,UGUAUUGGAAACAGUACUAGUGAUCCGGUCCGAGGACCGGUACGGCCGCCACUCGAAAUUAAUAAACAUGAGGAUCACCCAUGUA [Ex Tryptophan A 11],19.7 nM
7,UUGCCCAGUACGGCCGCCACUGUGUGCAGGGAACCCAGGUCCACAUGAGGAUCACCCAUGUACAGCAGGACCGGGUACUUGCAAU [Ininladia],11.9 nM
8,UACGUGGAUGCGGCCGCCACUGCUCUGAGCGAGUUGCUCUAUGGACAUGAGGAUCACCCAUGUCACAGGACCGGGCACGCUUUAA [theeternabot_sameState_MS2_Trp_B_50],11.9 nM
9,UGCAUUAUACAUGGAUCACCCAUGUAGACACGAGGACCGGUACGGCCGCCACUCGGAAGAGGAAACAUGAGGAUCACCCAUGUGA [Try A SS t2],89.7 nM
10,AGACUUCGCAUAGGAAAACUAUGUGAAGUCCGAGGACCGGUACGGCCGCCACUCGUCCUCAACAUGAGGAUCACCCAUGUAAUAA [#OpenEnded #CuTurnoff #Tail],26 nM
11,UCACAUGAGGAUCACCCAUGUAUAGUUGAAGGAGCGAUCAGGAGGUCAGGUAGGUCGCAGCACAUGAGGAUCACCCAUGUAUCGA [DOUBLE!!! :-D #4],72.7 nM
12,UUCGCGGCCGCGCUGCACAUGUGUGUGUUACGAGGACCGGUACGGCCGCCACUCGCGAUCGCACAUGAGGAUCACCCAUGUGGGA [Exclusion Tryp A GF17],35.8 nM
13,GCCAGACAUGAGGAUCACCCAUGUAGCGAUACCAGCUCUGUUGUGAGCCCUUGGCAGCGCACUGGCAUCGUAGGUGAUCCAAUAA [(T)''-(Ms2)-(Theo)-(T)'-(M)'_Design1],114 nM
14,UCGGGCAGAGCGGCCGCCACUGUUUGGCGUGCGGAUGACGGAACAUGAGGAUCACCCAUGUUGUUUAGGACCGGGCUUGCGGCGU [ipimullin],16.7 nM
15,UACAUAUGCCGAAGGAGCGCGAGAUGCAAAGCAUCAAUCCUUACAUGAGGAUCACCCAUGUCGCAGGUAGGUCGCGGCAUAUGUU [ArgBX 2],44.3 nM
16,GAUAUAUAGGCGGCCGCCACUGAUUUUCAUAUAUAUAUAACAUGAGGAUCACCCAUGUAGAUAUACAGGACCGGGCCUAUAUAUU [aaaB],16 nM
17,UGAUCCUGCAGGGAUACCAGCGCCGCUAGAUAACUAUGCACAUGAGGAUCACCCAUGUAACGCCCUUGGCAGCCCAACUAAAGGG [Same State Theophylline B GF21],41 nM
18,AGAGCAUUGACGGCCGCCACUCAUGUCACAUGAGGAUCACCCAUGUGAUGGGUAAUUGCCCGGUUGAGGACCGGGUCAAUGCUCA [Omei Tryp SS B v4],11.3 nM
19,AAAACACAUGAGGAUCACCCAUGUCAUGAUACCAGUCAACAUGAGGACCCUUGGCAGCAUAAAAUGGGUAACAUGAGGAUCACCC [AstrosEXyTheA#1],93.8 nM

# Same assay, conditions: Eterna round: R107; input ligand: theophylline 2 mM
row,Sequence,apparent KD of MS2 coat protein
1,AGGAAUGUCACGGCCGCCACUGACGCUAAAAUGGGCUCGAGCCGACAUGAGGAUCACCCAUGUUCCAGGACCGGGUGAAUCCUGG [theeternabot_sameState_MS2_Trp_B_40],299 nM
2,GCGGUACGUACUGAUACCAGAGACAUGAGGAUCACCCAUGUCCCAUGGUCAUGCCUCAGACUCCCUUGGCAGCAGGAUAAGUGCG [Exclusion Theophylline B GF3],40.4 nM
3,UGGUACAUGGCGGCCGCCACUGGGUUGAAAACCUGAGGAUCACCCUGGUAAAACGCGAAAGCGACUAGGACCGGGUCAUGUACCU,787 nM
4,GUCUGUGUCUGAAGGAGCGACAUGAGGAUCACCCAUGUCUCCCGUUAUGGGAGUUCCUUAGGUCAGGUAGGUCGCAGACACAGAC [#1 Exclusion - Arginine B Attempt #27 (Inspired by Omei)],187 nM
5,UAAAACAUGAGGAUCACCCAUGUAUUGAGUCGAGGACCGGUACGGCCGCCACUCGGCAAUAAUAACGACGCAUAGCAUGUAGGAA [theeternabot_sameState_MS2_Trp_A_41],14.9 nM
6,ACAUGAGGAUCACCCAUGUAAAUAGCGGAAGGAGCGUGCAAAAGCACAGGUAGGUCGCCGAUAUAAUAAUUGGGUAAUAUAUUAU [#27 Exclusion - Arginine A],26.2 nM
7,GCGUUGGCCACGGCCGCCACUCAGGUACCGCGCGUAGUGAACUUACAUGAGGAUCACCCAUGUCUGAGGACCGGGUGGCCGCCAC [theeternabot_sameState_MS2_Trp_B_27],46.1 nM
8,UAGAUAGAGGGAAGGAGCGCGAUAACAUAACAUGAGGAUCACCCAUGUAAGAAAUUAAUAAUGCAGGUAGGUCGCCCAAGAUGAU [Same State Arginine B gf1],19 nM
9,AUAACAUGAGGAUCACCCAUGUAAGCUGAAGGAGCGCUGGAAACAGCAGGUAGGUCGCAGCGGCGACCUUCAUGGGUAAGGUCGC [(M1)-(M2)-(Arg1)-(Arg2)-(A)'-(M)'-(A)''_Design4],40.5 nM
10,AGCGACAUGCGUGAUACCAGCUACAUGAGGAUCACCCAUGUCAGCAGGGAACUGCUGUGUAGCCCUUGGCAGCACAGUGCAUGUC [Exclusion - Theophylline B (Freestyle 29)],23.1 nM
11,CUAUGCAGGUCGGCCGCCACUACACACAUGAGGAUCACCCAUGUAGUUACUGGGUGAAGUGGCAGUAGGACCGGGACCUGCAUAC [Brourdmod10],817 nM
12,UCCUGCAGAGCGGCCGCCACUGUGUUGCGUGAGGAUGACCCAACAUGAGGAUCACCCAUGUUGUUUAGGACCGGGCUUGCCUCGA [xcmulliny],15.5 nM
13,AGCCACUCGAGUGAUCCUCACGAGUGGCAACGAGGACCGGUACGGCCGCCACUCGAAUCAACAUGAGGAUCACCCAUGUAAUAAU [Brourdmod01],82.3 nM
14,CGAUAUAUACGAAGGAGCGACAUGAGGAUCACCCAUGUCUACCACGUCGAAAGACGCUCAUGUCAGGUAGGUCGCGUAUAUAUCG [Astros-Eli-mod9],239 nM
15,CCGACAUGAGGAUCACCCAUGUGAACAGAUACCAGUCUGGUAAUAGACCCUUGGCAGCUGAACCAGGAAACUAUGGUGAUCCUGG [Theo A SS t3],187 nM
16,AGCCAUGGAAACAUGGCGGCGGCAUGAGCGCGAGGACCGGUACGGCCGCCACUCGGGCGACAUGAGGAUCACCCAUGUUCCUCAU [ETA NP+V+V2 #22 Same Structure],451 nM
17,ACUAGUUGUGCAGAUACCAGACACGAGGAUCACCCGUGUUUGGGAUGUUCGCAUCUUCCUGUCCCUUGGCAGCUGUACAUCUAGA [Omei Theo B Exc v8],221 nM
18,CGCAAGCAACAUGAGGAUCACCCAUGUGAAGGAGCGCCGAAUAAGGCAGGUAGGUCGCACAUGAAUAAAUCAUGUAAAAGCUUGC [MAT - Exclusion Arginine A - Mod of Eli - D22],160 nM
19,AGCACGGUGAUGGUAGCCGGACGCUAAGUACGAGGACCGGUACGGCCGCCACUCGGAGUCCUACGACAUGAGGAUCACCCAUGUA [Same State Trp A GF12],42.6 nM
20,UGUAUUGGAAACAGUACUAGUGAUCCGGUCCGAGGACCGGUACGGCCGCCACUCGAAAUUAAUAAACAUGAGGAUCACCCAUGUA [Ex Tryptophan A 11],20.2 nM
